Source: PMC8292379

Biological target: Human mitochondrial chaperonin mHsp60 (human), P10809
Test: cryo-EM structure; ~9 mg/ml mHsp60 on Quantifoil holey carbon grids, Titan Krios 300 kV, C7 symmetry imposed, combined map at 3.4 Å; 2D class averages show seven-fold symmetry
Details: remark: other sources report otherwise

stoichiometry N: 7
B1: Human mitochondrial chaperonin mHsp60, P10809 27-573 (natural protein)
chain: AKDVKFGADARALMLQGVDLLADAVAVTMGPKGRTVIIEQSWGSPKVTKDGVTVAKSIDLKDKYKNIGAKLVQDVANNTNEEAGDGTTTATVLARSIAKEGFEKISKGANPVEIRRGVMLAVDAVIAELKKQSKPVTTPEEIAQVATISANGDKEIGNIISDAMKKVGRKGVITVKDGKTLNDELEIIEGMKFDRGYISPYFINTSKGQKCEFQDAYVLLSEKKISSIQSIVPALEIANAHRKPLVIIAEDVDGEALSTLVLNRLKVGLQVVAVKAPGFGDNRKNQLKDMAIATGGAVFGEEGLTLNLEDVQPHDLGKVGEVIVTKDDAMLLKGKGDKAQIEKRIQEIIEQLDVTTSEYEKEKLNERLAKLSDGVAVLKVGGTSDVEVNEKKDRVTDALNATRAAVEEGIVLGGGCALLRCIPALDSLTPANEDQKIGIEIIKRTLKIPAMTIAKNAGVEGSLIVEKIMQSSSEVGYDAMAGDFVNMVEKGIIDPTKVVRTALLDAAGVASLLTTAEVVVTEIPKEEKDPGMGAMGGMGGGMGGGMF
